Assay results reported in the supplement of paper PMC9170038.

Tested on: K4 kissing-loop RNA reporter
Test: apparent KD of K4 kissing-loop reporter; higher = weaker reporter binding
Conditions: Eterna round: R107
Method: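 RNA-MaP round R107: designed RNA switches with theophylline, tryptophan, arginine or FMN aptamers are transcribed on-chip within common flanks. They are titrated with a labelled K4 kissing-loop RNA reporter in RNA-MaP buffer (100 mM Tris pH 7.5, 80 mM KCl, 4 mM MgCl2), without ligand or with the indicated ligand. Median apparent KD per design.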

[1] = input ligand: theophylline 20 uM
[2] = input ligand: tryptophan 2.4 mM
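Also: bound reporter read as fluorescence of individual clusters on recovered sequencing chips by microscopy, with normalized cluster intensities fitted with a binding model.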

Sequence | apparent KD of K4 kissing-loop reporter (input ligand: FMN 200 uM) | apparent KD of K4 kissing-loop reporter (input ligand: arginine 13.2 mM) | apparent KD of K4 kissing-loop reporter (input ligand: none) | apparent KD of K4 kissing-loop reporter [1] | apparent KD of K4 kissing-loop reporter [2]
CGCGCUGCCUGAGGAUAUAGAAACGAGUGAUGUUCGUGGACAAGAGCCAGUGAUGUUGGGUUAUUUCUAGAAGGCAGGCGAUCGU [Exclusion FMN B GF5] | 124 nM | 106 nM | 128 nM | 125 nM | 97.5 nM
CGCUGGGCGAGUGAUGUUCGCUCACGUGAUACCAGUGCCAUCCAACACCCUUGGCAGCACGCGGGCAGUGAUGUUGUCCUUGUGG [Exclusion Theophylline A GF7] | 284 nM | 241 nM | 285 nM | 269 nM | 268 nM
CGGAGUGAUGUUCCGUUAAUUCCUUAGUUACGAGGACCGGUACGGCCGCCACUCGAUUUUAGUUUUAUUUAUUGUUUGGAAAUUU [JR_SSTryptoA_Sub008] | 253 nM | 268 nM | 290 nM | 327 nM | 113 nM
CGGCGCGGCGCGGCCGCCACUGCGCCUGGGCGCUCGCCGAGUGAUGUUCGUCGGCGGUCGGGUGGCAGGACCGGGUGCCGGCCCG [BDazzled - #20 SS Tryptophan B] | 295 nM | 227 nM | 217 nM | 169 nM | 141 nM
CGGCGUGCCUUAUCCUCAUCUCUGACUCAACGAGGACCGGUACGGCCGCCACUCGGAAGAGGCAGUGAUGUUGCCUACGCCGGUG [Oronat] | 76.3 nM | 82.7 nM | 77.3 nM | 82.3 nM | 81.4 nM
CGGCUUAGUAGCGCGAGUUGACGUGCCAUCCGAGGACCGGUACGGCCGCCACUCGUGAUCUGUUAAAGUGAUGUUUUAAUGCCAU | 722 nM | 602 nM | 712 nM | 711 nM | 639 nM
CGGGUACGUCAAGGAUAUAGGCAUGACGUAGUGCAGUGAUGUUGCUCGAGUCUCUUCAACUGAGGACUAGAAGGUGAUCGUAACA [theeternabot_sameState_KL_FMN_B_15] | 491 nM | 351 nM | 631 nM | 644 nM | 344 nM
CGUAGCAGACGAAGGAGCGGCUACCUGAAUCAGGGUGAUGCCUGAGUGAUGUUCAGGUAAAGCCAGGUAGGUCGCGUCUGCUACG [Arg B Ex t9a] | 201 nM | 203 nM | 232 nM | 235 nM | 210 nM
CGUCACACUUGAUGGUUAUCCAAUGAUGAUACCAGCCGUCGAGAUGGCCCUUGGCAGCAUGUGGUACAGUGAUGUUGUACAUUGG [theeternabot_sameState_KL_Theo_A_30] | 392 nM | 244 nM | 383 nM | 352 nM | 258 nM
CGUCUAUAGCAGGAUACCAGUACCCAUUAUGUACGUUUAUAGUAGAGUGAUGUUCUAAAGUACCCUUGGCAGCUUCCUGUGACCC [#24 K4 Theophylline B Exclusion] | 179 nM | 189 nM | 189 nM | 206 nM | 163 nM
CGUGAAGACCAGAGGUGAUGUAUAGUAUCGCGAGGACCGGUACGGCCGCCACUCGUGAAGAGAAAGGAGUGAUGUUCCGUAAUGG [C12] | 246 nM | 239 nM | 312 nM | 326 nM | 107 nM
CGUGAUGUAUGGCGGUUUGUCACUUAGGAUCAGGAUAUAUAAACAAAUAGAAGGGAUGGCGGAGUGAUGUUCCGCCGGCCGCCAU [FMN A Exl V8] | 173 nM | 128 nM | 161 nM | 150 nM | 148 nM
CGUUCCUCUGUCGAUACCAGCUUCAGUUGGCGGCCAGUGAUGUUGGUAUCGCCGAUGCCAAGCCCUUGGCAGCGACAGGAGACCC [Usleanza] | 155 nM | 165 nM | 211 nM | 95 nM | 163 nM
CGUUUAUAGCAGGAUACCAGUACCCAUUAUGUACGUUUAUAGUAGAGUGAUGUUCUAAAGUACCCUUGGCAGCUUCCUGUGACCC [ExTheophylB.Aa] | 166 nM | 168 nM | 181 nM | 194 nM | 145 nM
CUAUGGAAACAUAGUGAUCGGGAAACCGAUACCAGUAUGGAAACAUACCCUUGGCAGCGGAAUGAUCAAACGGAGUGAUGUUCCG [Theophylline A K4 21] | 459 nM | 318 nM | 648 nM | 278 nM | 288 nM
CUCGAGUGAUGUUCCUUUAUUUAUACAGAUACCAGUGAAUUUUAACACCCUUGGCAGCUGGUUGUAUCUUUGUUUUUUACACAUG [JR_Nu_ExcTheophyA_Sub025] | 204 nM | 128 nM | 205 nM | 270 nM | 155 nM

Sequence | apparent KD of K4 kissing-loop reporter (input ligand: FMN 200 uM) | apparent KD of K4 kissing-loop reporter (input ligand: arginine 13.2 mM) | apparent KD of K4 kissing-loop reporter (input ligand: none) | apparent KD of K4 kissing-loop reporter [1] | apparent KD of K4 kissing-loop reporter [2]
CUGACGCUGAUACGGUGGCCGCUGGUCGUGCGAGGACCGGUACGGCCGCCACUCGCAUGAGUGAUGUUCAUGUGUCGUCGUCGUC [#07 K4 Tryptophan A Exclusion] | 122 nM | 108 nM | 113 nM | 105 nM | 123 nM
CUGGGUUGACGAAAAGUCAACAAAAGAGAAGGAGCGCACGAAAGUGCAGGUAGGUCGCUCAUCCAGUGAUGUUGGAUCAUCCAGA [#SwitchBubble 16 #K4Late] | 345 nM | 611 nM | 316 nM | 646 nM | 273 nM
CUUAAGAUAUGAGUGAUGUUUAUGUCCGAAGGAGCGUGCGAAAGUACAGGUAGGUCGCGGAUGUGAGUGAUGUUCAUGUAAGCGA [KL-XArg-A13 #analogue] | 132 nM | 87.9 nM | 114 nM | 109 nM | 106 nM
CUUCAGAUCUGAAGGAGCGCGUUACCAGAAUGCAUCAUAGAGCAGUGAUGUUGCUCUGGAUCGCAGGUAGGUCGCAGAUCUGACG [Arg B Ex t7b] | 196 nM | 189 nM | 189 nM | 156 nM | 195 nM
CUUGAUGGAAACAUCGAGUAUUUCACUGAUACCAGUAUCGAUAGAUACCCUUGGCAGCAGGAUCAGUGUUUACGAGUGAUGUUCG [Ex Theophylline A K4 9] | 444 nM | 408 nM | 451 nM | 380 nM | 376 nM
CUUGGAAAGACGGCCGCCACUGGCCAGUGAUGUUGGCCCACCAGGUAAGCCAAGAAGCUUGACGUCAGGACCGGGUCCUAGGAAU [Exclusion TRyptophan B GF 23] | 363 nM | 449 nM | 410 nM | 314 nM | 359 nM
CUUGGGCUUGCGGCCGCCACUCAAACAUCAUUAAGGAUGGUCCACGGGCAAGUGAUGUUUAUCCGGAGGACCGGGCAUAGCGACA [theeternabot_exclusion_KL_Trp_B_23] | 337 nM | 270 nM | 315 nM | 315 nM | 342 nM
GACUGGUUAACAGAUACCAGCCACAAGCGUUGAGGCGGCGGUAAAGUGAUGUUUUAUAAAGGCCCUUGGCAGCUGACUAGUUCGU [theeternabot_exclusion_KL_Theo_B_28] | 371 nM | 387 nM | 383 nM | 381 nM | 324 nM
GAGAUAGAGGCGGCCGCCACUAGUGAUGUUAGUGAUGUUAGAAAGAGAAUAGAACAGGGAUUAGAUAGGACCGGGCCAGAUGGAG [vvhmullin] | 64.4 nM | 46 nM | 60.4 nM | 62.2 nM | 60.1 nM
GAGAUAGAGGCGGCCGCCACUAGUGAUGUUAGUGAUGUUAGAUAGAGAAUAGAACAGAGGUAGGAUAGGACCGGGCCAGAUAGAG [whbob_SS_Tryp_B_w31] | 90.6 nM | 65.3 nM | 62.4 nM | 77 nM | 83.7 nM
GAGAUAGCGACGGCCGCCACUAGUGAUGUUAGUGCUGGUAGAUAGAUACUGGAACAGAAAUGACGUAGGACCGGGUCAGAUAGAG [#01 K4 Tryptophan B Exclusion] | 264 nM | 233 nM | 292 nM | 334 nM | 247 nM
GAGCGGUGGAGGUUACCGCUAUUCUGAGAAGGAGCGCAGAAGACUGCAGGUAGGUCGCUUAGAGCUUGCAGUGAUGUUGCAAGUU [KL-SSArg-A13] | 173 nM | 122 nM | 141 nM | 160 nM | 127 nM
GAGGUACAGCUGGCCGUCGAAUUGUCCGAUACCAGACACUCUCUAGUCCCUUGGCAGCGGUGGUAAGUGAUGUUUACAGGCGCCG [theeternabot_exclusion_KL_Theo_A_3] | 152 nM | 104 nM | 147 nM | 122 nM | 126 nM
GCAACAUUGGUAGGAUAUCAUUCUGAGUGAUGUUCAGGGUUCAGCUAACGAAAGUUAGUUGUACCAUGAGAAGGACUAAUGUUGC [Omei KL FMN B SS A v3] | 337 nM | 766 nM | 1220 nM | 1060 nM | 915 nM
GCAAGAGAGUGAUGUUGUUUUGAUCAGGGCAAGGAUAUGCUAUAUAGCAGAAGGUGCCGUUUUCUGCUGGCUUUCGUUACCCAUU [theeternabot_exclusion_KL_FMN_A_6] | 750 nM | 605 nM | 865 nM | 990 nM | 708 nM
GCACGUACCCGAAGGAGCGUGCAAGAAUCGUAGUGAUGUUACGGAGAGUGUCACGCCGUCGCACAGGUAGGUCGCGGGUACGUGC | 78.3 nM | 80.3 nM | 67.5 nM | 63.2 nM | 61.4 nM
